Assay [1] addresses Gramicidin A. The assay can be described thus: single-channel recording in planar lipid bilayers; gA added to both compartments of a painted DOPC bilayer; conductive channel = gA dimer; 10 mmol/L HEPES, 1 mol/L KCl, pH 7.4, 23 ± 2 °C, -100 mV; without and with AEA (up to 3 umol/L) or 3 umol/L 2-AG.
Assay [2] deals with Gramicidin A. Briefly: single-channel recording in planar lipid bilayers; gA added to both compartments of a painted DPhPC bilayer; conductive channel = gA dimer; 10 mmol/L HEPES, 1 mol/L KCl, pH 7.4, 23 ± 2 °C, -100 mV; without and with AEA.

The source of these data is PMC5269673.

In the assay with Gramicidin A [1], Gramicidin A (peptide) returned a fold increase of channel appearance frequency f (f/f control = k1/k1,control) with 3 umol/L AEA over no AEA of 7.2 fold and a fold increase of open channel lifetime tau (tau control/tau = k-1/k-1,control) with 3 umol/L AEA over no AEA of 1.8 fold. In the assay with Gramicidin A [2], this substance registered a fold increase of channel appearance frequency f (f/f control = k1/k1,control) with 3 umol/L AEA over no AEA of 4 fold and a fold increase of open channel lifetime tau (tau control/tau = k-1/k-1,control) with 3 umol/L AEA over no AEA of 1.4 fold.
